The values below come from a protein production outcome set (Wang et al. 2014).

This series can be described thus: label from the status in PepcDB records.
Regarding “MILLYLHIYEQKGSGTLNPVAFTLFGLEIRWYGILIATGVILGLFMAYSNSKLREIEYDSVLDIILISLPIGIIGARLYYVIFQFKSYNGNIIDMINIRNGGLAIHGGLIFGCLAAYIYSRYKKLSFLKLMDIAAPSIILAQALGRWGNFFNGEAHGGPVTYSFIEKFPKFIQKGMTIDGMYYNPTFLYESTWDFVTFIILMLLIRKCKNKGVVFFGYVGLYSLGRFFIEGMRTDSLMLGPIRVAQLVSILGMLISLGFITFSYVKTKRISK”, the protein production result is given as “failed”. In the case of “MLPLLVGTGVLVFLLLFGDSLLQDSDSYWQIETGRWILAHGTVPTVDSFSFSKAGEPWQSSSWLAQLIFALAMQAGWAGPVIVTALAVAAALAMFTAYLERYASALVTAALALAAMVLIMPHVLARPHMLALPVMVAWFIGLIDAADRKAAPPWALLLVMALWANLHGGFVFGLMLIGPLGLEALRQAEPQRRLSLALRWAAFGIAAVAACCATPYGWGTLLAATKILSLGEVLSTLGEWASSDFSKFGTFEASLLALLGIALARGLTLPWPRLLLVLGLVHMALVHVRSIEHYALLVPMIAARPWALQLGLARKSAEAKPDLAPPAWAGVVAVIAIIAATIAAAPRLHYRFDEPQVPERALAAVQAHGAKRIFNAYIFGGYLISRHVPVFIDGRAELYGEARVMDMMRATAGRDPAALDRMLTGNDIDATMLPPSAAAVRQMDERPGWRRLYADDIAVVHVRD” it was “failed”; in that of “MQTPSKKYVVDIWSDFVCPWCWIAKRRFENALNRSGMQDDVQVNVRAYRLAANQAPEPMIGALKRKLGNPASADSMMSTVSKYGRADGLDYRFDTMMFGDTADAHILVKAVEDTAVKKRLVEALYEQSTSHGRSLFDRSSLEAIAREVGVSDESIQLAWSSVELRNEMKDDESFAAQLGSGVPLFVFDSSFSVSGAQPDAVFLEALNKMVANSNPEDSSMMGQVCSIDGCKV”, “not failed”. In the case of “MISWRDRLTKALPQIAVVVHDLLMVWVCWQLLHAGRYSMLRDAPNLPLWDWRTAVVLVAQGLVFWKMGLYRGLWRFASVPDLWNIFKASFLGLVAIVLALAYDRLDGVPLSVLVVYPFALSALLGTPRLLYRAWKDYQIAHSGDAAQRVLILGAGRAAEGLVRDLRRTGAFVPVGYLDDANNLHGAKIQGLNVLGNLDQAAAIAKETAAKLLVIAIPSLDASGMQRVVAICESTGLPFRMVPKLINVLEGRSLPGELKEVAIEDLLNRKPVTPDWRLIRDWLTNKTVMVTGAGGSIGSEVCRQCARHGARRIVLLEIDELALLTIDSDLRRLFPDIEVVRVLGDCGDPAVVAHALNTATPDAVFHAAAYKQVPLLEEQLREAVRNNVLATENVARACQRARIETFVFISTDKAVEPVNVLGASKRYAEMICQSLDARDAPTRFITVRFGNVLDSAGSVVPLFREQIRQGGPVTVTHPDVTRYFMTIPEACQLVIQAAASASHGAIYTLDMGEPVPIRLLAEQMIRLAGKQPGKDVAILYTGLRPGEKLHETLFYSDEAYRPTAHPKILEAGVREFSHEQVLQLVMRLREAVNRYDIKAMETVLGSLMPDFAAARRKVDARSDTVVPFPAREVRRL” it was “failed”; in that of “MRVTYWRDESLQKNDRSHIKAYALMSGILAQLVGSILVGIFGGQWIDNKVGTFPLFLIIGLLLGLGTGVYAMIRLIRHYYSGEQ”, “failed”; in that of “MTKQIKVGVIGVGQMGQYHAEIYQKLPQVELVAICEFNDERRAEMAEKFQCKAYKDYHELLANTEIEAVIIVLPDNMHRDCVEEAVKHKKHILLEKPLAKELEDGKAMYELTKDYDKVFTVGFLLRFDPRFNMIKQRLDNGELGDIIHLYCRRNSPITGPKRYIGASDLSMHVMIHDIDYINWYMDSEPVKVIAKSRSVLLKEYGMNDVIYAIVTYENGAIACLEACWVLPENSPTIIDDKLELVGTKGVAYVDSCDHGVRFVSEKGVSYPDSRHWYYTNGEVSGDLAEEVMAFINNVANNTKSIITPKEAYDSLRVVDAIERSIAEGKEVSL”, “failed”. For “MTWKPNVTVAAVIEQDDKYLLVEEIPRGTAIKLNQPAGHLEPGESIIQACSREVLEETGHSFLPEVLTGIYHWTCASNGTTYLRFTFSGQVVSFDPDRKLDTGIVRAAWFSIDEIRAKQAMHRTPLVMQCIEDYHAGKRYPLDILQYYD” the value was “not failed”; for “MATRPKTIWESFLSPVVRFLMDEDKWRRYAQSIDWEKESDRFRRTDVIIPSYYTSQNFHGIEGGYLNSSAAVTYDPITEYVLPPNETLVRQALIDGVKVQPRRILDLGCGTGSTTLMLKQAFPQADVIGLDLSPYMLVRAEDKARTADLDISWRHGNAEKTSFPNASFDLVTTSLLFHETPVEVSQTILQECFRLLVAGGQVIILDGNQKSLRQLNWLNDIFEEPYIREYAADNLDARMGAAGFVGVQTEDLWLIHQVTSGIKPILATDTNQIKDRQYMPAIDNNNLEGLESPAFGIVALEHHHHHH”, “failed”. As for “MSSSDGKLRYDGRVAVVTGAGAGLGREYALLFAERGAKVVVNDLGGTHSGDGASQRAADIVVDEIRKAGGEAVADYNSVIDGAKVIETAIKAFGRVDILVNNAGILRDRSLVKTSEQDWNLVNDVHLKGSFKCTQAAFPYMKKQNYGRIIMTSSNSGIYGNFGQVNYTAAKMGLIGLANTVAIEGARNNVLCNVIVPTAASRMTEGILPDILFNELKPKLIAPVVAYLCHESCEDNGSYIESAAGWATKLHMVRGKGAVLRPSLDDPVTIEYVKDVWSNVTDMSKAKHLGAIAEASGTLLEVLEKLKEGGGDAIEDAFEFNSKELITYALGIGASVKNAKDMRFLYENDADFAAIPTFFVLPGLLLQMSTDKLLSKALPNSQVDFSNILHGEQYLEIVDDLPTSGTLLTNGKVFDVMDKGSGAVVVTNSESFDESGRLLVRNQSTTFIVGAGKFGGKKDPIAGVVPLQPAPNRQPDATVQYTTSEDQAALYRLSGDKNPLHIDPQMALLAGFKTPILHGLCTLGFSVRAVLAQFADNNPALFKAVKVRFSGPVIPGQTLRVDLWKQGTRINFRTVVVETGKEVISGAYVDLKSSQAKL”, the protein production result is recorded as “failed”. For the sequence “MGDFDPNKPVVISEFSPKEGGLGTRMLLYGENFGSDISKIKVTIGGQDSKVVGAKGKSLYCVVPAKAYDGDIKLSILNDEGEEIANTEANEKFVYQKKMLVTTFLGTMYDGNTKYDLKDGPFDDCGGFGGAVWLSFDPKNHNHLYLVGEQHPTRLIDFEKEYVSTVYSGLSKVRTICWTHEADSMIITNDQNNNDRPNNYILTRESGFKVITELTKGQNCNGAETHPINGELYFNSWNAGQVFRYDFTTQETTPLFTIQDSGWEFHIQFHPSGNYAYIVVVNQHYILRSDYDWKTKRLTTPYIVCGQQGAKDWVDGVGKKARMHAPRQGTFVKNPAYKGSSDEYDFYFCDRENHCIRILTPQGRVTTFAGRGSNGTSGYNDGDLRQEARFNHPEGIVYDEERECFFIGDRENRRIRKIGLEHHHHHH”, the protein production result was “failed”.

As for “MKRATLPRGRVAGLTAGSLAAVGLALALTLGGVSVVPSGFDGIEDLPLPGGADLGDHPYTVTAELQDVLSLVPHSAVRVNDVAVGRITGIELGEDDWSARVTMEINGEVRLPADATARLEQSSLLGEKYVQLVAPAKETGTGRLTDGSVIPLARTSRNTEVEEVFGALSLLLNGGGVNQLKTITRELNAALGGREPEVRSMLKRVNTLVGDLDDHRGDITDALDAVNRLSSTLATRKDDVGTVLTDLSPGLKTLERQRGSLLTMLRSLDTLSGVAVSTINASKDDMIADLKAVAPTLRALADAGTDLPDSLQVLLTYPFTDEVLRGVKGDYLNTYLSMVAVPGTEVIPPLVDGDTPGPTASATAQDGPDPAAKNPAAKNPISRKRSSGQRGSASPLPLPSVSGAGPASGGEHGLEHHHHHH”, the protein production result is “not failed”. In the case of “MSNTYLASMALMGALVVAVVTWMVRGRGWYHYSPGSSTSGRSPTSDRESRFETYADQPMVWVGAFAVLVVGLLVGVVASISGPVETQSIAGLAVAVVGGAGLCGYLLFGVYLSATRRGHPRSLAVAESATVAGVLFLIAVGFQLVGA” it was “failed”; in that of “MSDLGAYIHAVETASSASALREAVIQLAQQNSTAAIPTLIAVLGYNNPAAAQAAVEGLIALGDAVVEPLLAQLDGYNYGARAYGVRVLGSIGHPAALQVLLAAAQSDFAPSVRRAATKALGTLRWQLIPEETVREAQLKEALAVLQRNSKAADWAVRYAVGVALDYLHQQAAARGIREAVRSLLNHLSDRDPDIVVRSRCQLALQRDSLSMHT”, “failed”.
